# The nanobody polyreactivity screen of Harvey et al. (2022)
# Assay: yeast display, Sf9 membrane polyspecificity reagent, FACS + sequencing; frameworks hold sequencing errors
# Summary of the method: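 Galactose induction of a Saccharomyces cerevisiae BJ5465 synthetic nanobody display library ran 36–48 hours. The cells were then stained for 1 hour at 4 °C with 10% biotinylated, detergent-solubilized Sf9 membrane reagent, pulled down on streptavidin microbeads and FACS-sorted into low and high (top ~1%) gates on expression and reagent-binding fluorescence. Labels for polyreactivity follow the gate of origin.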
row,Sequence,polyreactivity (PSR sort gate)
1,QVQLVESGGGLVQAGGSLRLSCAASGLTFRPYTMGWYRQAPAKERELVAAISARGGRTYYADSVKGRFTISRDNAKNTVYLQMNSLKPEDTAVYYCATLETTGVNYWGQGTQVTVSS,high polyreactivity
2,QVHLVESGGGLVQAGGSLRLSCDASGSIFSVNVMGWYRQQPGKERELVAAITSGGSTHYADSVKGRFTISRDNAKNTVYLQMNSLKPEDTAVYDCAARVWYYDYWGQGTQVTVSS,high polyreactivity
3,QVQLVESGGGLVQAGGSLRLSCAASGRTFPYNVMGWYRQAPRKERELVARITRGGSTDYADSVKGRFTISRDNAKNTVYLLMNSLKPEDTAVYYCAAAIGHFERFYWGQGTQVTVSS,low polyreactivity
4,QVQLVESGGGLVQAGGTLRLSCAASGITFWYYARGWYRPAPGKERELVAVISYSGGIKSYADSVKGRFTISRENAKNTVNLQMNSMKPEDTAVFYCYTLYGRFKAKVYKYGSWGQGTQVTVSS,high polyreactivity
5,QVQLVESGGGLVQAGGSLRLSCAASGSISGRYAMGWSRQAPGKEMELVAAISWIGGSTYYADSVKGRFTISRDNAKNTVYLQMISLKPEDTAVYYCYVTIDTRTDPLLVVLYGYDYWGQGTLVTVSS,low polyreactivity
6,QVQLVESGGGLVQAGGSLRLSCAASGFTLLTYVMGWYRQAPGKERELVAAISKSGSRTYYADSVKWRFTISRDNAKNTVYLQMNRLKPVDTPVYYCAADTSAYRYDYWGQGTQVTVSS,high polyreactivity
7,QVQLVESGGGLVQAGGSLRLSCAASGFTFFMYAMGGDRQAPGKEREFVASITGSGGSTYYADSVKGRFTISRDTAKNSVYLQMNSLKPEDTAVYYCNKLSYGRSGYWGQGTQVTVSS,high polyreactivity
8,QVQLVESGGGLVQAGGSLRLSCAASGIFVVYAMGWYRQAPGKERELVAAISSGVSTTYADSVKGRFTISRDNAKNTVYLQMNSLKPEDTAVYYCNTLWGHQYIVPYRTREFYYWGQGTQVTVSS,low polyreactivity
9,QVQLVESGGGLVQAGGSLRLSCAASGRTFIGYAMGWYRQAPGKERELVATISVSGGSTYYADSVKGRFTISRDNAKNTVYLQMNSLKPEDTAVYYCAKAYLRFYDGPYDYWGQGTQVTVSS,low polyreactivity
10,QVQLVESGGGLVQAGGSLRLSCAASGFTFRVNAMGWYRQAPGKERELVASITVSGGNTYYADSVKGRFTISRDNEKNTVYLLMNSLKPEDTAVYYCATDFSPVYYTRYDYWGQGTQVTVSS,low polyreactivity
11,QVQLVESGGGLVQAGGSLRLSCAASGRSFLYYAMGWYRQAPGKERELVAAIRRGSSTYYADSVKGRFTISRDNAKNTVYLQMNSLKPEDTAVYYCAARGRYRIGPGRYGKRYAYWGQGTQVTVSS,high polyreactivity
12,QVQLVESGGGLVQAGGSLRLSCAASGFTFAKYAMGWYRQAPGKERELVAAISSSGGRTYYADSVQGRFTLSRDNAKNTDYLQMNSLKPEDTAVYYCAADFSGPFDYWGQGTQVTVSS,high polyreactivity
13,QVQHVESGGGLLQAGGSLRLSCAASGRIFYGNAMGWYRQATGKERELVAAILWRGGTTYYADSVKGRFTISRDNAMNTVYLLMISLKPEDTSDYNCTADEPYKYYYWGQGTQVTVSS,low polyreactivity
14,QVQLVESGGGLVQAGGSLRLSCAASGSIFTYKAMGWYRQAPGKERELVAAIRQRGGSTYYADSVKGRFTISRDNAKNTVYLQKNSLKPEDTAVYYCAARGSYVRSYYYYWGQGTQVTVSS,high polyreactivity
15,QVQLVESGGGLVQAGGSLRLSCAASGSILIYNAMGWYRQAPGKERELVAGISRRGASTYYADSVKGRFTISRDNAKNTVYLQMNSLKPEDTAVYYCAALGKYIVAWAGDYWGQGTQVTVSS,low polyreactivity
16,QDQHVESGGGLVQAGCSLRLSCAASGSIFSWNAMGWYRQAPGKERELVAAIRWDTGSTYYADSVKVRFTISRDKAKNTVYLQMNRLKPEDTAVYYCAADLFDCQLIDGFAVVTYGYWGQGTQVTVSS,low polyreactivity
17,QVQLVESGGGLVQAGGSLRLSCAASGSTFRYNAMGWYRQAPGKERELVAAITSSGGRTYYADSVKGRFTISRDNAKKTVYLQRISLKPEDTAVYYCDAYAYYHTGDDYWGQGTQVTVSS,high polyreactivity
18,QVQLVESGGGLVQAGGSLRLSCAASGFTFPGNAMGWYRQAPGKERELVAAISRSGAGTYYADSVKGRFTISRDNAKNTDYLQMNRLKPEDTAVYYCNAVYSSWDYHYRYGYWGQGTQVTVSS,high polyreactivity
19,QVQLVESGGGLVQAGGSLRLSCAASGSIFVAYDMGWYRQAPGKERELVAAINFDGTSTYYADSVKGRFTISRDNAKNTVYLQMNSLKPEETAVYYCNNRVSPTYKGQYEYWGQGTQVTVSS,low polyreactivity
20,QVQLVESGGGLVQAGGSLRLSCAASGRIFTGNVMGWYRQAPGKERELFAAISYGGGSTNYADSVKGRFTISRDNAKNTVYLQMNSLKPEDTAVYYCAAGIKRYLSYYTRYGYWGQGTQVTVSS,high polyreactivity
21,QDQLVESGGGLVQAGGSLRLSCAASGIIFAKYAMGWSRQAPGNERELVAAINARGGSTYYADSVKGRFTISRDNAMNTVYLQMNSLKPEDTAVYYCAAERRSRFGNGVTYDYWGQGTQVTVSS,high polyreactivity
22,QVQIVESVGGLVQAGGSLRLSCAASGRTFPYYAKGRYRQAPGKEREMVATISTADSTYYADSVKGRFTISRDNAKNTVYLQMNRLITEATEVYYCAKDRYTYWSVHAFRRLDYWGQGTQLTVSS,low polyreactivity

row,Sequence,polyreactivity (PSR sort gate)
1,QVQLVESGGGLVQAGGSLRLSCAAYGITFYRNAMGWYRQAPGKEMELVAAITWNGGRTYYADSVKGRFTISRDNAKNTVYLQMNSLKPEDTAVYYCAADSGTLNLASYRYYYWGQGTQVTVSS,low polyreactivity
2,QGQLVESGGGLVQAGGSLRLSCAASGRIFEFNARGWYRQAPGKERELVAANSRSGGSTYYADSVKGRFTISRDKAKNTVYLQMNTQKPEHTAVYYCNAVYHYYPLYYWKYGYWGQGTQVTVSS,low polyreactivity
3,QVQLVESGGGLVQAGGSLRLSCAASGRTFYKYAMGWYRQAPGKERELVAAINRIGGRTYYADSVKGRFTISRDNAKNTVYLQMNSLKPEDTAVYYCAAEFVGDNRHGYWGQGTQVTVSS,high polyreactivity
4,QVQLVESGGGLVQAGGSLRLSCAASGIILTVYAMGWYRQAPGKERELVATISRRGGNTYYADSVKGRFTISRDNAKNTVYLQMNSLKPEDTAVYYCNKAYQYGGYYYWGQGTQVTVSS,high polyreactivity
5,QVQLVESGGGLVQAGGSLRLSSAASGRIFKYYAMGWYRQAPGKERELVAAISWRGGRTYYADSVKGRFTISRDNAKNTVYLQMNSLKPEDTAVYYCAAEWYATMGYWGQGTQVTVSS,low polyreactivity
6,QVQLVESGGGLVQAGGSLRLSCAASGSIFIYYTMGWYRQAPGKEREFVASISWRGGRTYYADSVKGRFTISRDNAKNTVYLQMNSLKPEDTAVYYCAAKSRAYSYRMDYWGQGTQVTVSS,high polyreactivity
7,QVQLVESGGGLVQAGGSLRLSCAASGRIYYWYDMGWYRQAPGKERELVAAISWSGGSTSYADSVKGRFTISRDNAKNTVYLQMNSLKPEDTAVYYCNADLTQYLGPVYEYGYWGQGTQVTVSS,low polyreactivity
8,QVQLVESGGGLVQAGGSLRLSCAASGFTFKKNAMGWYRPAPGKERELVAAISRSGGITYYADSVKGRFTISRDNAKNTVYLQMNSLKPEDTAVSYCATQTYRTPAYPAYGYWGQGTQVTVSS,high polyreactivity
9,QVQLVESGGGLVQAGGRLRLSCAASGSTIPRYAMGWSRQAPGKERELVAAITNGGSTNYADSVKGRFTISRDNAKNTVYLQMNSLKPEDTAVYYCAKRFGYRFYYGGQGTQVTVSS,high polyreactivity
10,QVQLVESGGGLVQAGGSLRLSCAASGSTFRRYAMGWYRQAPGKERELVASISWSGGSTSYADSVKGRFTISRDTAKNTVYLQMNSLKPEDTAVYYCAAVRYYWGEYYARYAYEYWGQGTQVTVSS,high polyreactivity
11,QVQLVESGGGLVQAGGSLSLSCAASGYTFLRYAMGWYRQAPGQERELVATISRSGGRTYYADSVKGRFTISRDNAKNTVYLLMNSLKPEDTSVYYCNAEAIVVNGGGYWGQGTQVTVSS,high polyreactivity
12,QVQLVESGGGLVQAGGSLRLSCAASGRIFGVYAMGWYRQAPGKERELVAAIDSSDASTYYADSVKGRFTISRDNAKNTVYLQMNSLKPEDTAVYYCAADNPAAVYGYDYWGQGTQVTVSS,low polyreactivity
13,QVQLVESGGGLVQAGGSLRLSCAASGSIFKYNTMGWYRQAPGKERELVAAIRYSGGRTYYADSVKGRFTISRDYAKNTVYLQMNSLKPEDTAVYYCAAGSIQYRPTYTGDYWGQGTQVTVSS,high polyreactivity
14,QVQLVESGGGLVQAGGSLRLSCAASGRIFPVYTMGWYRQAPGKERELVAAITSSGGSTYYADSVKGRFTISRDNAKNTVYLQMNSLKPEDTAVYYCAKRAGWAYYYWGQGTQVTVSS,high polyreactivity
15,QVQLVESGGGLVQAGGSLRLSCAASGRIVRNAMGWYRPAPGKEWELVAAITRSGGSTYYADSVKGRFTISRDNAKKTVYLQMNSLKPEDTAVYYCAARHYRSRDGYSGQGTQVTVSS,high polyreactivity
16,QVQLVESGGGLVQAGGSLRLSCAASGITLNRNAMGWYRQAPGKERELVAAISSGGNTYYADSVKGRFSISRDNAKNTVYLQMNSLKPEDTEVYYCAARQVQAPRSIGFYFWGQGTQVTVSS,high polyreactivity
17,QVQLVESGGGLVQAGGSLRLSCAASGFTFKLYAMGWYRQAPGKERELVAAISSSGGRTYYADSVKGRFTISRDNAKYNVYLQMNSLKPEDTAVYYCNAVRTVNDYHYDYWGQGTQVTVSS,high polyreactivity
18,QVQLVESGGGLVQAGGSLRLSCAASGFIFIAYAMGWYRQAPGKERELVAAISKSGTRTYYADSVKGRFTISRDNAKNTVYLQMNSLKPEDTAVYYCATYSTYNKGTHGDYWGQGTQVTVSS,high polyreactivity
19,QVQLVESGGGLVQAGGSLRLSCAASGLTFKANAMGWYRQAPGKERELVAAITWSGTSTYYADSVKGRFTISRDNAKNTVYLQMNSLKPEDTAVYYCNKPYDVWYHDYDYWGQGTQVTVSS,low polyreactivity
20,QVQLVESGGGLVQAGGSLRLSCAASGSTFYTNAMGWYRQAPGKERELVAAISASVGSTYYADSVKGRFTISRDNAKNTVYLQMNSLKPEDTAVYYCAAQYTYLLFASLPDYDYWGQGTQVTVSS,low polyreactivity
21,QVHLVESGGGLVQAGGSLRLSCAASGRIFSYYALGWSRQAPGKERELVAAISWSGSRTYYADSVKGRFTFSRDNAKNTVYFQMNSLKPEDTAVYYCDAEVWSTQGSATVQYDYCGQGTQVTVSS,high polyreactivity
